Target: 14-3-3ε (UniProt P62258)
Experiment: anti-Flag IP, anti-14-3-3ε Western blot
Settings: reference: wild type; sites S274,S299

- binding against the reference: weaker
Substance: PITPNC1 (from UniProt Q9UKF7) S274/299A

Reference: publication PMC5300038
